Assay results reported in IntAct's records for PubMed 22078559.

B1: Double-strand break repair protein MRE11 (Homo sapiens), P49959 (parent)
chain: MSTADALDDENTFKILVATDIHLGFMEKDAVRGNDTFVTLDEILRLAQENEVDFILLGGDLFHENKPSRKTLHTCLELLRKYCMGDRPVQFEILSDQSVNFGFSKFPWVNYQDGNLNISIPVFSIHGNHDDPTGADALCALDILSCAGFVNHFGRSMSVEKIDISPVLLQKGSTKIALYGLGSIPDERLYRMFVNKKVTMLRPKEDENSWFNLFVIHQNRSKHGSTNFIPEQFLDDFIDLVIWGHEHECKIAPTKNEQQLFYISQPGSSVVTSLSPGEAVKKHVGLLRIKGRKMNMHKIPLHTVRQFFMEDIVLANHPDIFNPDNPKVTQAIQSFCLEKIEEMLENAERERLGNSHQPEKPLVRLRVDYSGGFEPFSVLRFSQKFVDRVANPKDIIHFFRHREQKEKTGEEINFGKLITKPSEGTTLRVEDLVKQYFQTAEKNVQLSLLTERGMGEAVQEFVDKEEKDAIEELVKYQLEKTQRFLKERHIDALEDKIDEEVRRFRETRQKNTNEEDDEVREAMTRARALRSQSEESASAFSADDLMSIDLAEQMANDSDDSISAATNKGRGRGRGRRGGRGQNSASRGGSQRGRADTGLETSTRSRNSKTAVSASRNMSIIDAFKSTRQQPSRNVTTKNYSEVIEVDESDVEEDIFPTTSKTDQRWSSTSSSKIMSQSQVSKGVDFESSEDDDDDPFMNTSSLRRNRR

Variants of: B1
Settings: with nbn_human NBN

| Variant | effect of a mutation on the interaction |
| --- | --- |
| P121G | disrupting interaction |
| D86L | decreasing interaction |
| R202G | disrupting interaction |
| R80A | disrupting interaction |
| N117L | disrupting interaction |
| C146A | decreasing interaction |
| S104C | decreasing interaction |
